B1: UNC93B1-GFP, wild type [modified: N-glycosylated at N251 and N272; N-glycosylated at N251 and N272] [not stated] / TLR9-myc (in UNC93B1 KO iBMDMs) [not stated] (parent)
chain 1: MEVEPPLYPVAGAAGPQGDEDRHGVPDGPEAPLDELVGAYPNYNEEEEERRYYRRKRLGVVKNVLAASTGVTLTYGVYLGLLQMQLILHYDETYREVKYGNMGLPDIDSKMLMGINVTPIAALLYTPVLIRFFGTKWMMFLAVGIYALFVSTNYWERYYTLVPSAVALGMAIVPLWASMGNYITRMSQKYYEYSHYKEQDEQGPQQRPPRGSHAPYLLVFQAIFYSFFHLSFACAQLPMIYFLNNYLYDLNHTLINVQSCGTKSQGILNGFNKTVLRTLPRSKNLIVVESVLMAVAFLAMLMVLGLCGAAYRPTEEIDLRSVGWGNIFQLPFKHVRDFRLRHLVPFFIYSGFEVLFACTGFALGYGVCSMGLERLAYLLIAYSLGASASSVLGLLGLWLPRSVPLVAGAGLHLLLTLSLFFWAPAPRVLQHSWIFYFVAALWGVGSALNKTGLSTLLGILYEDKERQDFIFTIYHWWQAVAIFVVYLGSSLPMKAKLAVLLVTLVAAAASYLWMEQKLQQGLVPRQPRIPKPQHKVRGYRYLEEDNSDESDMEGEQGQGDCAEDEAPQAGPLGAEPAGPCRKPCPYEQALGGDGPEEQ
chain 2: LGTLPAFLPCELKPHGLVDCNWLFLKSVPRFSAAASCSNITRLSLISNRIHHLHNSDFVHLSNLRQLNLKWNCPPTGLSPLHFSCHMTIEPRTFLAMRTLEELNLSYNGITTVPRLPSSLVNLSLSHTNILVLDANSLAGLYSLRVLFMDGNCYYKNPCTGAVKVTPGALLGLSNLTHLSLKYNNLTKVPRQLPPSLEYLLVSYNLIVKLGPEDLANLTSLRVLDVGGNCRRCDHAPNPCIECGQKSLHLHPETFHHLSHLEGLVLKDSSLHTLNSSWFQGLVNLSVLDLSENFLYESITHTNAFQNLTRLRKLNLSFNYRKKVSFARLHLASSFKNLVSLQELNMNGIFFRLLNKYTLRWLADLPKLHTLHLQMNFINQAQLSIFGTFRALRFVDLSDNRISGPSTLSEATPEEADDAEQEELLSADPHPAPLSTPASKNFMDRCKNFKFTMDLSRNNLVTIKPEMFVNLSRLQCLSLSHNSIAQAVNGSQFLPLTNLQVLDLSHNKLDLYHWKSFSELPQLQALDLSYNSQPFSMKGIGHNFSFVTHLSMLQSLSLAHNDIHTRVSSHLNSNSVRFLDFSGNGMGRMWDEGGLYLHFFQGLSGLLKLDLSQNNLHILRPQNLDNLPKSLKLLSLRDNYLSFFNWTSLSFLPNLEVLDLAGNQLKALTNGTLPNGTLLQKLDVSSNSIVSVVPAFFALAVELKEVNLSHNILKTVDRSWFGPIVMNLTVLDVRSNPLHCACGAAFVDLLLEVQTKVPGLANGVKCGSPGQLQGRSIFAQDLRLCLDEVLSWDCFGLSLLAVAVGMVVPILHHLCGWDVWYCFHLCLAWLPLLARSRRSAQTLPYDAFVVFDKAQSAVADWVYNELRVRLEERRGRRALRLCLEDRDWLPGQTLFENLWASIYGSRKTLFVLAHTDRVSGLLRTSFLLAQQRLLEDRKDVVVLVILRPDAHRSRYVRLRQRLCRQSVLFWPQQPNGQGGFWAQLSTALTRDNRHFYNQNFCRGPTAE

The variants in this assay derive from B1. Briefly: co-immunoprecipitation from isolated phagosomes, band densitometry. The note with it: with TLR9-myc (in UNC93B1 KO iBMDMs), means ± SD of two independent experiments, parent: 1, read off a plot.
Turning to chain 1 N251Q, the ratio to parent was 1.3 A.U. Then chain 1 N272Q, with 1.1 A.U.

Source of the values: publication PMC9301129.
